Assay results: patent US20230234997A1, “Compositions and Methods for the Treatment of Synucleinopathies” (SOLA BIOSCIENCES LLC, priority 2020, published 2023)
Residues, ends and D or L forms follow the SMILES beside them. *: point of attachment. Cbz = O=C(OCc1ccccc1)*

Experiments:
Type in all cases: cell-based
[1] = biological target: T1, mutant (A53T) α-synuclein phosphorylated at Ser129 (Homo sapiens, UniProt P37840, A53T); experiment: Level of phosphorylated α-synuclein (Ser129) on co-expression of fusion protein constructs; conditions: Table 13, wildtype alone = 100%, mutant alone = 92.1%
T1 construct: expressed in transfected cells

[2] = biological target: T2, mutant (A53T) α-synuclein (Homo sapiens, UniProt P37840, A53T); experiment: ELISA of aggregated α-synuclein (Syn-O4 capture) in lysates of transfected HEK293 cells
T2 construct: expressed in transfected cells; host or cells: HEK293
Method: Cells were also treated with either Bafilomycin A1, an inhibitor of late phase autophagy (10 nM and 100 nM), or MG132, a proteasome inhibitor (0.1 μM and 1 μM). Aggregated synuclein in cell lysates were determined by ELISA using an anti-aggregated synuclein antibody.
Expression vector plasmids encoding various protein constructs were transfected into HEK293 cells with Lipofectamine 3000 transfection reagent (Thermo Fisher Scientific). One day after transfection, culture medium was replaced with fresh medium containing bafilomycin al (BFA) or MG132, and cells were incubated for additional 48 hours. Cells were lysed in lysis buffer (20 mM Tris, pH 7.4, 150 mM NaCl, 1 mM EDTA, 0.1% NP-40) supplemented with protease inhibitor cocktail (Complete Protease Inhibitor Cocktail; Sigma) and 2 mM PMSF. After brief sonication, cell lysates were analyzed in ELISA or immunoblotting assay.
The aggregation status of expressed α-synuclein was monitored with α-synuclein aggregate-specific antibody Syn-O4 (BioLegend). Syn-O4 is a conformation-specific monoclonal antibody that recognizes specifically α-synuclein aggregates but not the soluble, monomeric form of the protein^58. Microtiter plate wells were coated with Syn-O4 overnight at 4° C., and after coating, the wells were washed three times with PBS, blocked for one hour with PBS containing 1% BSA, and washed again with PBS. […]

[3] = biological target: T2, mutant (A53T) α-synuclein; experiment: Immunoblot of total α-synuclein in lysates of transfected HEK293 cells
Method: (§1) FIG. 3A: Wild type (WT) α-synuclein (Syn(WT): bars 1-3) or mutant α-synuclein (Syn(A53T): bars 4-6) was expressed alone or with a Flag epitope-tagged fusion protein comprising the J-domain DnaJB1 and a α-synuclein-binding domain (J-SynBP1: bars 2 and 5) or a control fusion protein construct comprising a mutated J-domain (containing a P33Q substitution) and a α-synuclein-binding peptide (J(MT)-SynBP1: bars 3 and 6) in HEK293 cells. Two days later, cells were homogenized in Tris buffer (10 mM Tris, pH7.4, 140 mM NaCl, 1 mM EDTA supplemented with protease inhibitor cocktail). Aggregation of mutant α-synuclein levels were quantified with sandwich ELISA, in which aggregated α-synuclein proteins were captured by coated-Syn-O4 antibody, followed by detection with HRP-conjugated anti-α-synuclein antibody (BioLegend: A15115A). FIG. 3B Lysates were prepared from HEK293 cells transiently transfected with wildtype Syn(WT) (lanes 1-3) or mutant Syn(A53T) (lane 4-6) alone or co-expressed with the fusion protein constructs. After brief sonication, the cell lysate was subjected to SDS-PAGE/immuno blotting with anti-α-synuclein antibody (Ab-2: top panel), Flag antibody (middle panel) or anti-Tubulin antibody (bottom panel).
Cells were transfected with either wildtype (lane 2) or mutant (lanes 3-8) α-synuclein, and also transfected with the JB1-SynBP1 fusion protein (lanes 4-8). […]
(§2) Expression vector plasmids encoding various protein constructs were transfected into HEK293 cells with Lipofectamine 3000 transfection reagent (Thermo Fisher Scientific). Cell lysates were analyzed for expressed proteins using immunoblot assays. […] After brief sonication, the samples were analyzed for expressed proteins using immunoblot assays. […]
(§3) Expressed proteins were detected using a chemiluminescent signal. […]
Expression vector plasmids encoding various protein constructs were transfected into HEK293 cells with Lipofectamine 3000 transfection reagent (Thermo Fisher Scientific). […] After brief sonication, cell lysates were analyzed in ELISA or immunoblotting assay.

wildtype α-synuclein [4] = biological target: T3, wildtype α-synuclein (Homo sapiens, UniProt P37840); experiment: ELISA of aggregated α-synuclein (Syn-O4 capture) in lysates of transfected HEK293 cells; conditions: co-expression with wildtype α-synuclein, ELISA on cell lysates, bars 1-3
T3 construct: expressed in transfected cells; host or cells: HEK293
Method: as §1, with “FIG. 3B Lysates were prepared from HEK293 cells transiently transfected with wildtype Syn(WT) (lanes 1-3) or mutant Syn(A53T) (lane 4-6) alone or co-expressed with the fusion protein constructs. After brief sonication, the cell lysate was subjected to SDS-PAGE/immuno blotting with anti-α-synuclein antibody (Ab-2: top panel), Flag antibody (middle panel) or anti-Tubulin antibody (bottom panel).” left out
as §2
The aggregation status of expressed α-synuclein was monitored with α-synuclein aggregate-specific antibody Syn-O4 (BioLegend). […]

wildtype α-synuclein [5] = biological target: T3, wildtype α-synuclein; experiment: Immunoblot of total α-synuclein in lysates of transfected HEK293 cells; conditions: wildtype Syn(WT), lanes 1-3
Method: as §1, with “FIG. 3B Lysates were prepared from HEK293 cells transiently transfected with wildtype Syn(WT) (lanes 1-3) or mutant Syn(A53T) (lane 4-6) alone or co-expressed with the fusion protein constructs. After brief sonication, the cell lysate was subjected to SDS-PAGE/immuno blotting with anti-α-synuclein antibody (Ab-2: top panel), Flag antibody (middle panel) or anti-Tubulin antibody (bottom panel).” left out
as §2, §3

[6] = HEK293, BFA at either 10 nM or 100 nM
[7] = HEK293, MG132 (0.1 μM and 1 μM)

“Construct 12: J domain from human DnaJB1 fused on its C-terminus to SynBP1 (with rigid EAAAK linker)” was tested, and the “Phosphorylated α-synuclein” value [1] was 23.1%.
For “Construct 10: J domain from human DnaJB1 fused to 4XGGGGS linker, in turn, fused on its C-terminus to QBP1”, the “ability to reduce mutant (A53T) synuclein aggregation (Table 11)” value ([2]; Mutant (A53T)) was “potently reduce α-synuclein aggregation”.
`CO/C1=C\C(C)=C\[C@@H](C)[C@@H](O)[C@@H](C)C/C(C)=C/C=C/[C@H](OC)[C@@H]([C@@H](C)[C@@H](O)[C@H](C)[C@@]2(O)C[C@@H](O)[C@H](C)[C@@H](C(C)C)O2)OC1=O` [BFA, Bafilomycin A1, reference compound] was tested, and the “effect of inhibitor on aggregated α-synuclein in cells expressing mutant α-synuclein and construct 1” value [2, 6] was “restoration of total and aggregated α-synuclein to levels matching cells expressing mutant α-synuclein alone” and the “effect of inhibitor on total α-synuclein in cells expressing mutant α-synuclein and construct 1” value [3, 6] was “restoration of total and aggregated α-synuclein to levels matching cells expressing mutant α-synuclein alone”.
For `CC(C)C[C@@H](C=O)NC(=O)[C@H](CC(C)C)NC(=O)[C@H](CC(C)C)NC(=O)OCc1ccccc1` [MG132, reference compound] (Cbz-Leu-Leu-Leu-aldehyde), the “effect of inhibitor on aggregated level of α-synuclein in cells expressing mutant α-synuclein and construct 1” value [2, 7] was “little effect” and the “effect of inhibitor on total level of α-synuclein in cells expressing mutant α-synuclein and construct 1” value [3, 7] was “little effect”.
With “Construct 11: J domain from human DnaJB1 fused on its C-terminus to SynBP1 (with flexible GGGGS linker)” the “Phosphorylated α-synuclein” value [1] was 19.1%.
For “Construct 13: J domain from human DnaJB1 fused on its C-terminus to SynBP1 (no linker)”, the “Phosphorylated α-synuclein” value [1] was 4.5%.
With “Construct 2: Same as construct 1, but containing a P33Q mutation within the J domain (control)” the “amount of detectable aggregated α-synuclein (FIG. 3A)” value (wildtype α-synuclein [4]) was “higher overall aggregation”, the “overall level of α-synuclein (FIG. 3B, Western blot)” value ([3]; HEK293 cells, mutant Syn(A53T), lanes 4-6) was “relatively similar levels” and the “overall level of α-synuclein (FIG. 3B, Western blot)” value (wildtype α-synuclein [5]) was “relatively similar levels”.
